According to paper PMC6669014:

Target: NRTN-GFRα2 complex (wild type) (human) (UniProt Q99748)
Test: SPR

UniProt Q99748, sequence (Q99748 97-197, chain 1 of 2): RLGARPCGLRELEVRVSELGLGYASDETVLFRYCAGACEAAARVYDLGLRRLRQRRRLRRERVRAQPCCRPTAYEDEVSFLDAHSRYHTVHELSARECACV
UniProt Q99748, sequence (O00451 22-441, chain 2 of 2, further chain): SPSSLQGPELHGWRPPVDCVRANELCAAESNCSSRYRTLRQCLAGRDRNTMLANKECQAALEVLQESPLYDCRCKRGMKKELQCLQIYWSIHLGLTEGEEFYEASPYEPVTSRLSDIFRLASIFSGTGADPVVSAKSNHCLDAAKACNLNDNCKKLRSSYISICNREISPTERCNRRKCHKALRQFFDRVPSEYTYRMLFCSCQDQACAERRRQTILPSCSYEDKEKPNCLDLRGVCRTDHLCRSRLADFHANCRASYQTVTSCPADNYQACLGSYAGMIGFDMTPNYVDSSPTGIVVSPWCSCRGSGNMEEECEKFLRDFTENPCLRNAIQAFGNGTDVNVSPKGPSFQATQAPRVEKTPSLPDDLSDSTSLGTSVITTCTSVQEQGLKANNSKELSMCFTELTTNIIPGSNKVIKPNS

increase in response over NRTN alone: 150 RU
Substance: human RET extracellular domain (RET^ECD, 29 to 635) (from UniProt P07949 29-635) (receptor)
